Bridge positions count the residues as written; N and C are the ends. Square brackets hold non-standard residues; d marks the D form. Primed or numbered codes have the meaning given here. Ends that are not written are not given here. PEG13′ = Bifunctional PEG linker with 13 polyethylene glycol units; PEG25′ = Bifunctional PEG linker with 25 polyethylene glycol units; Phe(4-CF3) = N[C@@H](Cc1ccc(C(F)(F)F)cc1)C(=O)O; Phe(4-tBu) = CC(C)(C)c1ccc(C[C@H](N)C(=O)O)cc1; Bip = N[C@@H](Cc1ccc(-c2ccccc2)cc1)C(=O)O; Phe(4-CN) = N#Cc1ccc(C[C@H](N)C(=O)O)cc1; 1Nal = N[C@@H](Cc1cccc2ccccc12)C(=O)O; 2Nal = N[C@@H](Cc1ccc2ccccc2c1)C(=O)O; NMeR = CN[C@@H](CCCNC(=N)N)C(=O)O; Tic = O=C(O)[C@@H]1Cc2ccccc2CN1; β3hE = N[C@@H](CCC(=O)O)CC(=O)O; NMeK = CN[C@@H](CCCCN)C(=O)O; Pen = CC(C)(S)[C@H](N)C(=O)O; hLeu = CC(C)CC[C@H](N)C(=O)O
B1: SEQ ID NO 170 (peptide)
peptide: Ac-[Pen][NMeR]SDTL[Pen][Phe(4-tBu)][b‑H‑E][dK]
modifications: disulfide 1-7 (inferred); not fully specified (residue 10); also: hexanoic acid attached after k
B2: SEQ ID NO 169 (peptide)
peptide: Ac-[Pen][NMeR]SDTL[Pen][Phe(4-tBu)][b‑H‑E][dK]
modifications: disulfide 1-7 (inferred); not fully specified (residue 10); also: 4,4,4-trifluorobutyric acid attached after k
B3: SEQ ID NO 158 (peptide)
peptide: Ac-XRSDXLXXE-NH2
modifications: disulfide 1-7 (inferred); not fully specified (residues 1, 2, 5, 7, 8, 9); printed as Ac-Pen-(N-Me-R)-S-D-Cha-L-Pen-(2-Nal)-e-NH2, disulfide

What follows are binders tested against α4β7 integrin on human cells (human, UniProt P13612 34-1032; P26010 20-798) (assay: cell-based or functional assay).
Ac-[Pen][NMeR]SDIL[Pen][2Nal][dE]-NH2 (disulfide 1-7 (inferred)) [SEQ ID NO 160] was tested, and the “α4β7 cell (Hu) IC50” value was over 1000 nM. With Ac-[Pen][NMeR]SDTL[Pen][1Nal][Tic][dK]-NH2 (disulfide 1-7 (inferred); also: homodimer via DIG) [SEQ ID NO 115] the “α4β7 cell (Hu) IC50” value was over 100 nM. Ac-[Pen][NMeR]SDTL[Pen][Bip]E[NMeK]-NH2 (disulfide 1-7 (inferred); also: homodimer via DIG) [SEQ ID NO 136] was tested, and the “α4β7 cell (Hu) IC50” value was at most 10 nM. In the case of B1, the “α4β7 cell (Hu) IC50” value is reported as over 10 nM. Ac-[Pen][NMeR]SDTL[Pen]WE-OH (disulfide 1-7 (inferred)) [SEQ ID NO 128] was tested, and the “α4β7 cell (Hu) IC50” value was over 50 nM. With [PEG13′]C[NMeR]SDTL[Pen]W-NH2 (disulfide 2-8 (inferred)) [SEQ ID NO 20] the “α4β7 cell (Hu) IC50” value was over 50 nM. With Ac-[Pen][NMeR]SDTL[Pen][Phe(4-tBu)][b‑H‑E][dK]-NH2 (disulfide 1-7 (inferred); also: homodimer via IDA-PEG4-Biotin) [SEQ ID NO 167] the “PBMC IC50” value was at most 10 nM and the “α4β7 cell (Hu) IC50” value was at most 10 nM. For Ac-[Pen][NMeR]SDTL[Pen]W[BetaE][dK]-NH2 (disulfide 1-7 (inferred); also: dimer via DIG) [SEQ ID NO 1], the “α4β7 cell (Hu) IC50” value was over 50 nM. With Ac-[Pen][NMeR]SDTL[Pen][2Nal][dT][dK]-NH2 (disulfide 1-7 (inferred); also: homodimer via DIG) [SEQ ID NO 140] the “α4β7 cell (Hu) IC50” value was over 10 nM. In the case of Ac-[Pen][NMeR]SDTL[Pen][1Nal][dT][dK]-NH2 (disulfide 1-7 (inferred); also: homodimer via DIG) [SEQ ID NO 116], the “α4β7 cell (Hu) IC50” value is reported as over 50 nM. XRSDTLXW (Ac-Pen-(N-Me-R)-S-D-T-L-Pen-W-OH; disulfide) [SEQ ID NO 127] was tested, and the “α4β7 cell (Hu) IC50” value was over 100 nM. With Ac-[Pen][NMeR]SDTL[Pen][dW]E[dK]-NH2 (disulfide 1-7 (inferred); also: homodimer via DIG) [SEQ ID NO 28] the “α4β7 cell (Hu) IC50” value was over 50 nM. In the case of Ac-[Pen][NMeR]SDFL[Pen][2Nal][dE]-NH2 (disulfide 1-7 (inferred)) [SEQ ID NO 157], the “α4β7 cell (Hu) IC50” value is reported as over 1000 nM. Ac-[Pen][NMeR]SD[hLeu]L[Pen][2Nal][dE]-NH2 (disulfide 1-7 (inferred)) [SEQ ID NO 161] was tested, and the “α4β7 cell (Hu) IC50” value was over 1000 nM. For Ac-[Pen][NMeR]SDTL[Pen]HE[dK]-NH2 (disulfide 1-7 (inferred); also: homodimer via DIG) [SEQ ID NO 25], the “α4β7 cell (Hu) IC50” value was over 10 nM. In the case of B2, the “α4β7 cell (Hu) IC50” value is reported as over 10 nM. For Ac-[Pen][NMeR]SDVL[Pen][2Nal][dE]-NH2 (disulfide 1-7 (inferred)) [SEQ ID NO 156], the “α4β7 cell (Hu) IC50” value was over 100 nM. With Ac-[Pen][NMeR]SDTL[Pen][Phe(4-tBu)][b‑H‑E][dK]-OH (disulfide 1-7 (inferred); also: homodimer via DIG) [SEQ ID NO 168] the “PBMC IC50” value was at most 10 nM and the “α4β7 cell (Hu) IC50” value was at most 10 nM. For Ac-[Pen][NMeR]SDTL[Pen][2Nal][dF][dK]-NH2 (disulfide 1-7 (inferred); also: homodimer via DIG) [SEQ ID NO 117], the “α4β7 cell (Hu) IC50” value was over 100 nM. Ac-[Pen][NMeR]SDTL[Pen][Phe(4-tBu)][b‑H‑E]-NH2 (disulfide 1-7 (inferred)) [SEQ ID NO 165] was tested, and the “PBMC IC50” value was over 100 nM and the “α4β7 cell (Hu) IC50” value was over 10 nM. Ac-[Pen][NMeR]SDTL[Pen][2Nal][dY][dK]-NH2 (disulfide 1-7 (inferred); also: homodimer via DIG) [SEQ ID NO 27] was tested, and the “α4β7 cell (Hu) IC50” value was over 25 nM. In the case of Ac-[Pen][NMeR]SDTL[Pen][2Nal][dR][dK]-NH2 (disulfide 1-7 (inferred); also: homodimer via DIG) [SEQ ID NO 120], the “α4β7 cell (Hu) IC50” value is reported as over 1000 nM. For Ac-[Pen][NMeR]SDTL[Pen]HY[dK]-NH2 (disulfide 1-7 (inferred); also: homodimer via DIG) [SEQ ID NO 26], the “α4β7 cell (Hu) IC50” value was over 100 nM. For Ac-[Pen][NMeR]SDTF[Pen][2Nal][dE]-NH2 (disulfide 1-7 (inferred)) [SEQ ID NO 162], the “α4β7 cell (Hu) IC50” value was over 1000 nM. For Ac-[Pen][NMeR]SDTL[Pen][2Nal][dH][dK]-NH2 (disulfide 1-7 (inferred); also: homodimer via DIG) [SEQ ID NO 118], the “α4β7 cell (Hu) IC50” value was over 25 nM. In the case of Ac-[Pen][NMeR]SDTL[Pen]Y[dE][dK]-NH2 (disulfide 1-7 (inferred); also: homodimer via DIG) [SEQ ID NO 123], the “α4β7 cell (Hu) IC50” value is reported as over 50 nM. For Ac-[Pen][NMeR]SDTL[Pen][2Nal][Tic][dK]-NH2 (disulfide 1-7 (inferred); also: homodimer via DIG) [SEQ ID NO 121], the “α4β7 cell (Hu) IC50” value was over 100 nM. With B3 the “α4β7 cell (Hu) IC50” value was over 1000 nM. For Ac-[Pen][NMeR]SDTL[Pen][Bip][β3hE][dK]-NH2 (disulfide 1-7 (inferred); also: homodimer via DIG) [SEQ ID NO 135], the “α4β7 cell (Hu) IC50” value was at most 10 nM. In the case of Ac-[Pen][NMeR]SDTL[Pen][Phe(4-CF3)][dE][dK]-NH2 (disulfide 1-7 (inferred); also: homodimer via DIG) [SEQ ID NO 122], the “α4β7 cell (Hu) IC50” value is reported as over 50 nM. With Ac-[Pen][NMeR]SDTL[Pen]H[dE][dK]-NH2 (disulfide 1-7 (inferred); also: homodimer via DIG) [SEQ ID NO 124] the “α4β7 cell (Hu) IC50” value was over 100 nM. Ac-[Pen][NMeR]SDTL[Pen][Phe(4-tBu)][b‑H‑E][dK]-NH2 (disulfide 1-7 (inferred); also: homodimer via IDA) [SEQ ID NO 166] was tested, and the “PBMC IC50” value was at most 10 nM and the “α4β7 cell (Hu) IC50” value was at most 10 nM. For Ac-[Pen][NMeR]SDTL[Pen][Phe(4-CN)][β3hE][dK]-NH2 (disulfide 1-7 (inferred); also: homodimer via DIG) [SEQ ID NO 139], the “α4β7 cell (Hu) IC50” value was at most 10 nM. In the case of Ac-[Pen][NMeR]SDLL[Pen][2Nal][dE]-NH2 (disulfide 1-7 (inferred)) [SEQ ID NO 159], the “α4β7 cell (Hu) IC50” value is reported as over 1000 nM. For Ac-[Pen][NMeR]SDTY[Pen][2Nal][dE]-NH2 (disulfide 1-7 (inferred)) [SEQ ID NO 164], the “α4β7 cell (Hu) IC50” value was over 1000 nM. For [PEG25′]C[NMeR]SDTL[Pen]W-NH2 (disulfide 2-8 (inferred)) [SEQ ID NO 21], the “α4β7 cell (Hu) IC50” value was over 50 nM. In the case of Ac-[Pen][NMeR]SDTQ[Pen][2Nal][dE]-NH2 (disulfide 1-7 (inferred)) [SEQ ID NO 163], the “α4β7 cell (Hu) IC50” value is reported as over 1000 nM. Ac-[Pen][NMeR]SDTL[Pen][2Nal][dL][dK]-NH2 (disulfide 1-7 (inferred); also: homodimer via DIG) [SEQ ID NO 119] was tested, and the “α4β7 cell (Hu) IC50” value was over 500 nM.

Reference: patent US20160159862A1 (PROTAGONIST THERAPEUTICS, published 2016)
